Assay results as given in patent US20240409614.

What was measured:
A1AT-M351V/L353T/M358V = molecular target: T1, A1AT-M351V/L353T/M358V
T1 chain: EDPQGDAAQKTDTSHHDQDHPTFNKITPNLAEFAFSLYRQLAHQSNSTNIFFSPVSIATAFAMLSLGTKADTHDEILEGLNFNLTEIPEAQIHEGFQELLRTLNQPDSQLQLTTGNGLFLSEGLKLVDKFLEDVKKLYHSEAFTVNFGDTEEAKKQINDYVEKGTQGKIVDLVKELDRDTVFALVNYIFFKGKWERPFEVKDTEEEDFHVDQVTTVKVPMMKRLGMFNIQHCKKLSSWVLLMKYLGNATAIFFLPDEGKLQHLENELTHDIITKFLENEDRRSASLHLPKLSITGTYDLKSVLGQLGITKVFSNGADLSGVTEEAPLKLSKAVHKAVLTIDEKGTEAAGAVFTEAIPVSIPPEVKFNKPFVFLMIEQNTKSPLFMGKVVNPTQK

[1] = molecular target: wildtype alpha-1-antitrypsin (A1AT)
A1AT-M351V/L353S/M358V = molecular target: T2, A1AT-M351V/L353S/M358V
T2 chain: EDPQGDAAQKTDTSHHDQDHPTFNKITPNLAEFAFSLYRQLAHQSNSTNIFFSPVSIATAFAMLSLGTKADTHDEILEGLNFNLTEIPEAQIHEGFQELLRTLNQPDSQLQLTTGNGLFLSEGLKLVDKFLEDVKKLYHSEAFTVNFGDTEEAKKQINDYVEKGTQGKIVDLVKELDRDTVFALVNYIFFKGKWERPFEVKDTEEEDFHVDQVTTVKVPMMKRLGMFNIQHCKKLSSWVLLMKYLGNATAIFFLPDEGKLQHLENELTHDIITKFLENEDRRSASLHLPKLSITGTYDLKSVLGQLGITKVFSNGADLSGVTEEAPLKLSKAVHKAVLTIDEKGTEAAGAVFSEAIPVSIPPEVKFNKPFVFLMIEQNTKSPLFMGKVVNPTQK

A1AT-M351V/L353A/M358V = molecular target: T3, A1AT-M351V/L353A/M358V
T3 chain: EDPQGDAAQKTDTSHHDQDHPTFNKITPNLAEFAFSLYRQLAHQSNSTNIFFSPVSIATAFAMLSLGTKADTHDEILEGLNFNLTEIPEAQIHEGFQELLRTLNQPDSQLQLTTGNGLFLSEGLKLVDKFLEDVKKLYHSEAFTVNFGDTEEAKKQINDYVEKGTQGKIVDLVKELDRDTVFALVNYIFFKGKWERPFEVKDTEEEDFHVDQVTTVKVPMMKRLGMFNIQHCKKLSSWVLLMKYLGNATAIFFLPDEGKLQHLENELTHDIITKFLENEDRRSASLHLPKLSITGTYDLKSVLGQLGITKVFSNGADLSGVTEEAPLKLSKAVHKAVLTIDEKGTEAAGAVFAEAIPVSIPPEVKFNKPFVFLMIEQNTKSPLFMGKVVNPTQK

B1: MMP-9 (ProSpec, cat #enz-438) (protein)
chain: APRQRQSTLVLFPGDLRTNLTDRQLAEEYLYRYGYTRVAEMRGESKSLGPALLLLQKQLSLPETGELDSATLKAMRTPRCGVPDLGRFQTFEGDLKWHHHNITYWIQNYSEDLPRAVIDDAFARAFALWSAVTPLTFTRVYSRDADIVIQFGVAEHGDGYPFDGKDGLLAHAFPPGPGIQGDAHFDDDELWSLGKGVVVPTRFGNADGAACHFPFIFEGRSYSACTTDGRSDGLPWCSTTANYDTDDRFGFCPSERLYTQDGNADGKPCQFPFIFQGQSYSACTTDGRSDGYRWCATTANYDRDKLFGFCPTRADSTVMGGNSAGELCVFPFTFLGKEYSTCTSEGRGDGRLWCATTSNFDSDKKWGFCPDQGYSLFLVAAHEFGHALGLDHSSVPEALMYPMYRFTEGPPLHKDDVNGIRHLYGPRPEPEPRPPTTTTPQPTAPPTVCPTGPPTVHPSERPTAGPTGPPSAGPTGPPTAGPSTATTVPLSPVDDACNVNIFDAIAEIGNQLYLFKDGKYWRFSEGRGSRPQGPFLIADKWPALPRKLDSVFEERLSKKLFFFSGRQVWVYTGASVLGPRRLDKLGLGADVAQVTGALRSGRGKMLLFSGRRLWRFDVKAQMVDPRSASEVDRMFPGVPLDTHDVFQYREKAYFCQDRFYWRVSSRSELNQVDQVGYVTYDILQCPED
For B1, the cleaved (%) after MMP-9 treatment (SDS-PAGE) (A1AT-M351V/L353T/M358V) was 0%, the non-cleaved (%) after MMP-9 treatment (SDS-PAGE) (A1AT-M351V/L353T/M358V) was 100% and the cleaved (%) after MMP-9 treatment (SDS-PAGE) [1] was 89%. It also gave a non-cleaved (%) after MMP-9 treatment (SDS-PAGE) [1] of 11%, a cleaved (%) after MMP-9 treatment (SDS-PAGE) (A1AT-M351V/L353S/M358V) of 0% and a non-cleaved (%) after MMP-9 treatment (SDS-PAGE) (A1AT-M351V/L353S/M358V) of 100%. It also gave a cleaved (%) after MMP-9 treatment (SDS-PAGE) (A1AT-M351V/M358V) of 25%, a non-cleaved (%) after MMP-9 treatment (SDS-PAGE) (A1AT-M351V/M358V) of 75% and a cleaved (%) after MMP-9 treatment (SDS-PAGE) (A1AT-M351V/L353A/M358V) of 6%. It also gave a non-cleaved (%) after MMP-9 treatment (SDS-PAGE) (A1AT-M351V/L353A/M358V) of 94%.

B2: MMP-7 (ProSpec, cat #enz-271) (protein)
chain: YSLFPNSPKWTSKVVTYRIVSYTRDLPHITVDRLVSKALNMWGKEIPLHFRKVVWGTADIMIGFARGAHGDSYPFDGPGNTLAHAFAPGTGLGGDAHFDEDERWTDGSSLGINFLYAATHELGHSLGMGHSSDPNAVMYPTYGNGDPQNFKLSQDDIKGIQKLYGKRSNSRKK
With B2 the “proteolytic degradation by MMP-7 (SDS-PAGE, FIG. 4)” value (“proteolytic degradation” below) (A1AT-L353A) was “A0025 showed as little degradation by MMP-7 as A0028 and A0031”, the “proteolytic degradation” value (A1AT-L353A/M358V) was “A0025 showed as little degradation by MMP-7 as A0028 and A0031” and the cleaved (%) after MMP-7 treatment (SDS-PAGE) (A1AT-M351V/L353T/M358V) was 5%. For the same protein, the non-cleaved (%) after MMP-7 treatment (SDS-PAGE) (A1AT-M351V/L353T/M358V) was 95%, the “proteolytic degradation” value (A1AT-M351V/L353A) was “A0025 showed as little degradation by MMP-7 as A0028 and A0031” and the cleaved (%) after MMP-7 treatment (SDS-PAGE) [1] was 96%. The non-cleaved (%) after MMP-7 treatment (SDS-PAGE) [1] was 4%, the cleaved (%) after MMP-7 treatment (SDS-PAGE) (A1AT-M351V/L353S/M358V) was 0% and the non-cleaved (%) after MMP-7 treatment (SDS-PAGE) (A1AT-M351V/L353S/M358V) was 100%. The cleaved (%) after MMP-7 treatment (SDS-PAGE) (A1AT-M351V/M358V) was 63%, the non-cleaved (%) after MMP-7 treatment (SDS-PAGE) (A1AT-M351V/M358V) was 37% and the cleaved (%) after MMP-7 treatment (SDS-PAGE) (A1AT-M351V/L353A/M358V) was 0%. The non-cleaved (%) after MMP-7 treatment (SDS-PAGE) (A1AT-M351V/L353A/M358V) was 100%.
